Tested on: NIH-3T3 mouse embryonic fibroblast cells
Assay: IL-6 secretion by NIH-3T3 fibroblasts (Elisa)
Format: cell-based
Conditions: NIH-3T3 cells, 50 ng/ml, vs control / IL-17 group
Method: FIG. 2: NIH-3T3 mouse embryonic fibroblast cells were treated with IL-17 vehicle (Ctrl), IL-17 (50 ng/ml) alone (IL-17) or peptide (FM-0410) (50 ng/ml) and supernatants were assayed by Elisa for IL-6. Data were expressed as pg/ml and presented as means±S.D. of three separate independent experiments. Statistical analysis was conducted by one-way ANOVA followed by Bonferroni's for multiple comparisons. ^##P≤0.01, ^###P≤0.005 vs Ctrl group; *P≤0.05 vs IL-17 group. In order to assess the biological activity of synthesized peptide, we carried out in vitro studies using NIH-3T3 mouse embryonic fibroblast cells. […] With this in vitro system we measured IL-17 activity by its ability to induce IL-6 secretion by NIH-3T3 mouse embryonic fibroblast cells. Methods: The levels of IL-6 in the cellular and air pouch inflammatory supernatants at 24 h were measured using commercially available enzyme-linked immunosorbent assay kit (ELISA kit, R&D System, Milan, Italy) according to the manufacturer instructions. […] The addition of 100 μl of the substrate and stop solution represented the last steps before the reading of absorbance (measured at 450 nm) on a microplate reader. Antigen levels in the samples were determined using a standard curve and expressed as pg/ml. […]

B1: IL-17: recombinant mouse IL-17 purchased from R&D System; full-length cytokine used as comparator and stimulus (protein, UniProt Q62386 26-158, looked up)
Interleukin-17A: AAIIPQSSACPNTEAKDFLQNVKVNLKVFNSLGAKVSSRRPSDYLNRSTSPWTLHRNEDPDRYPSVIWEAQCRHQRCVNAEGKLDHHMNSVLIQQEILVLKREPESCPFTFRVEKMLVGVGCTCVASIVRQAA
IL-6 release: significant increase in IL-6 release compared to control group
